This sample holds only a part of the variants without activity.
B1: TPR 5TU (parent)
chain: GGAUCUUCUCGAUCUAACAAAAAAGACAAAUCUGCCACAAAGCUUGAGAGCAUCUUCGGAUGCAGAGGCGGCAGCCUUCGGUGGCGCGAUAGCGCCAACGUUCUCAACUAUGACACGCAAAACGCGUGCUCCGUUGAAUGGAGUUUAUCAUG

Variants of: B1
Assay: polymerase ribozyme fitness, log enrichment relative to wild type (log ratio); higher = more active; in vitro selection for triplet polymerase activity
Outline: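 A single round of triplicate in vitro selection, including frozen incubation at −7 °C, was applied to PCR-built, transcribed mutant libraries of each subunit of a heterodimeric triplet polymerase ribozyme. Illumina sequencing of input and output libraries retained genotypes with ≥10 input reads and ≥1 read per output. Fitness is the base-2 logarithm of genotype enrichment divided by wild-type enrichment, from inverse-variance-weighted replicate averages.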

G42U U45C C72U C85G A98G A106C G117U and U44A C79G C85A U111G G133C cannot be ordered by “polymerase ribozyme fitness (log ratio)” value: at most -4.2 for the first, at most -4.2 for the second.

U44A U45A C51U C95A C103G and C43U A73G C79A U134A cannot be ordered by “polymerase ribozyme fitness (log ratio)” value: at most -4.2 for the first, at most -4.2 for the second.

C43U G62A A119U U134A and C43U C54U U56G U78C C85G C93G G133A G136U G140U cannot be ordered by “polymerase ribozyme fitness (log ratio)” value: at most -4.2 for the first, at most -4.2 for the second.

Going from C43A U53A U55A G74A C76A G88U A142G to C43G G94A, the “polymerase ribozyme fitness (log ratio)” value rises from at most -4.2 to -3.81.

Going from C43U C125G U151G to C43A C96A U101G A150U, the “polymerase ribozyme fitness (log ratio)” value rises from at most -4.2 to -4.16.

C43U C54A U55C C85U C99G A147G and C43U G50U U109A A150U cannot be ordered by “polymerase ribozyme fitness (log ratio)” value: at most -4.2 for the first, at most -4.2 for the second.

U44A U53G C105U C116G G141C and C43U A106G cannot be ordered by “polymerase ribozyme fitness (log ratio)” value: at most -4.2 for the first, at most -4.2 for the second.

First: U44A A49G
Second: U44A A49C
The “polymerase ribozyme fitness (log ratio)” value of the first is lower: at most -4.2 for the first, -4.06 for the second.

C43U C51A C85U A107U U135C and C43G C57A G59C C72A C79A A138G U145A cannot be ordered by “polymerase ribozyme fitness (log ratio)” value: at most -4.2 for the first, at most -4.2 for the second.

Compared with U44C G83C U148A, U44C C96U C103G A115C is higher in “polymerase ribozyme fitness (log ratio)” value: at most -4.2 for the first, -4.19 for the second.

C43U A138C and G42U U44A C54A G88U cannot be ordered by “polymerase ribozyme fitness (log ratio)” value: at most -4.2 for the first, at most -4.2 for the second.

Going from G42U U56A C75G A91U G126A U144A to C43U C57U, the “polymerase ribozyme fitness (log ratio)” value rises from at most -4.2 to -3.79.

C43U G67U and U44C G59U G92A U135A cannot be ordered by “polymerase ribozyme fitness (log ratio)” value: at most -4.2 for the first, at most -4.2 for the second.

C43G G50C C85A C96A C108U G124A and U44A G58U G70C C76A A91G A115C cannot be ordered by “polymerase ribozyme fitness (log ratio)” value: at most -4.2 for the first, at most -4.2 for the second.

C43U G50C C75G C79G G84A and C43A A52G C69U A91U C96U A106U cannot be ordered by “polymerase ribozyme fitness (log ratio)” value: at most -4.2 for the first, at most -4.2 for the second.

U44A G50A C79A C99U U102G C108U and U44A G117U cannot be ordered by “polymerase ribozyme fitness (log ratio)” value: at most -4.2 for the first, at most -4.2 for the second.

Compared with G42U U45G U53C G88U A137C, U44A C76U is higher in “polymerase ribozyme fitness (log ratio)” value: at most -4.2 for the first, -4.19 for the second.

First: U44C G59A A91U
Second: C43A G88A
The “polymerase ribozyme fitness (log ratio)” value of the first is higher: -4 for the first, at most -4.2 for the second.

Going from U44A G46C C75G U102A A120U U130G to U44A C85U U139C, the “polymerase ribozyme fitness (log ratio)” value falls from -3.99 to at most -4.2.

C43U G81C G88A G133C and C43U G50U U55A C76U G136A G152U cannot be ordered by “polymerase ribozyme fitness (log ratio)” value: at most -4.2 for the first, at most -4.2 for the second.

U44A C57G C69G G80C U82A C108A U109G G141C and C43A A47C U53A A91G cannot be ordered by “polymerase ribozyme fitness (log ratio)” value: at most -4.2 for the first, at most -4.2 for the second.

First: U44A C75G C96U
Second: U44A C87A U90C C93G C105G A122G
The “polymerase ribozyme fitness (log ratio)” value of the first is higher: -4.08 for the first, at most -4.2 for the second.

C43U G58C C95A U102C C103G C105G A110U and G42U G65A C95U U139G cannot be ordered by “polymerase ribozyme fitness (log ratio)” value: at most -4.2 for the first, at most -4.2 for the second.

U44A A49U C54U G59U G92A A106U and C43A C63U U90A cannot be ordered by “polymerase ribozyme fitness (log ratio)” value: at most -4.2 for the first, at most -4.2 for the second.

Going from C43G G94A G133U A137U to C43U U45A C63U G81A C95G U111A, the “polymerase ribozyme fitness (log ratio)” value falls from -4.11 to at most -4.2.

U44C C85A A91U U127G and U44A G50C U53A C87A A106G A107U cannot be ordered by “polymerase ribozyme fitness (log ratio)” value: at most -4.2 for the first, at most -4.2 for the second.

C43A C75U A106U C108U C123G G141A and C43G G84A C95A A106U C118G G143U cannot be ordered by “polymerase ribozyme fitness (log ratio)” value: at most -4.2 for the first, at most -4.2 for the second.

Compared with G42U G59U G84A C85U C103G A119G, C43A U44A C118U is higher in “polymerase ribozyme fitness (log ratio)” value: at most -4.2 for the first, -4.17 for the second.

First: U44A U144C
Second: C43A C57G U78G C96A A113G
The “polymerase ribozyme fitness (log ratio)” value of the first is higher: -3.62 for the first, at most -4.2 for the second.

C43U C54G G92A U148G C149U and C43G C54A U55A A73G G74C G124C cannot be ordered by “polymerase ribozyme fitness (log ratio)” value: at most -4.2 for the first, at most -4.2 for the second.

C43G C87U U109G and C43A U53G A64U C95U A110U A150C cannot be ordered by “polymerase ribozyme fitness (log ratio)” value: at most -4.2 for the first, at most -4.2 for the second.

C43U C75A C79U G86U C87U G117U A150C and C43G U55A U61G G86A A89G A122U cannot be ordered by “polymerase ribozyme fitness (log ratio)” value: at most -4.2 for the first, at most -4.2 for the second.

U44A G88A A120G and U44A G88A A120U cannot be ordered by “polymerase ribozyme fitness (log ratio)” value: at most -4.2 for the first, at most -4.2 for the second.

U44A A47U C72G G86C A91C and C43U U61A G86U A142G A147U cannot be ordered by “polymerase ribozyme fitness (log ratio)” value: at most -4.2 for the first, at most -4.2 for the second.

C43U G84U A113U and U44A G58A C93U C96G A97G A98U A119G U144C A150U cannot be ordered by “polymerase ribozyme fitness (log ratio)” value: at most -4.2 for the first, at most -4.2 for the second.

C43U A66G C105A and G42U U56A G58A C76U C95G A98G cannot be ordered by “polymerase ribozyme fitness (log ratio)” value: at most -4.2 for the first, at most -4.2 for the second.

U44A G80A A121U U144A and C43U U55A C87U cannot be ordered by “polymerase ribozyme fitness (log ratio)” value: at most -4.2 for the first, at most -4.2 for the second.

First: G42U U45A C95U C149A
Second: C43G G86U U139C
The “polymerase ribozyme fitness (log ratio)” value of the first is lower: at most -4.2 for the first, -4.11 for the second.

Compared with C43G G83U A97U U104C C116U A137C, C43U C95A is higher in “polymerase ribozyme fitness (log ratio)” value: at most -4.2 for the first, -4.15 for the second.

First: G42U C108U C125U A138U U148A
Second: G42U G84U G117U C118G A142G
The “polymerase ribozyme fitness (log ratio)” value of the first is higher: -4.13 for the first, at most -4.2 for the second.

Compared with U44A G83U, U44A U82A is lower in “polymerase ribozyme fitness (log ratio)” value: -3.94 for the first, -4.18 for the second.

For C43G G83C, the “polymerase ribozyme fitness (log ratio)” value was at most -4.2.

— the RNAGym collection of RNA variant scans (doi:10.1073/pnas.2313332121)
